Assay results as given in US20210253725A1 (BIONTECH, published 2021).
Residue numbers refer to the chain shown, from its start. Names and notes keep the numbering of the source. Values belong to the binder of their own block, whether it stands above or below them.

What was measured:
[1] = biological target: T1, CD27 expressed on the cell surface (HT1080_CD27 cells) (human, UniProt P26842 20-260); test: cell-based or functional assay
T1 sequence (looked up): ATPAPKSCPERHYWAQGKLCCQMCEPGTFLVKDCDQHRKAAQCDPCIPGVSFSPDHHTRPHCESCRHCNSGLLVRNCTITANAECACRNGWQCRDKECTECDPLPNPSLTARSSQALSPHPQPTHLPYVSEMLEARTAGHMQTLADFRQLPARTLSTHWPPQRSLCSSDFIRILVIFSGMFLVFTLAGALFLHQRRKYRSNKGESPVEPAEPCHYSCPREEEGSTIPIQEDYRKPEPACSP

[2] = biological target: T2, CD27 protein (His-tagged, Sino Biological Inc. 10039-H08B1) (human, UniProt P26842 20-192); test: ELISA on coated His-tagged CD27
T2 construct: bought; coated onto ELISA plates; also called human CD27; recombinant protein; not shown: His tag
T2 sequence (looked up): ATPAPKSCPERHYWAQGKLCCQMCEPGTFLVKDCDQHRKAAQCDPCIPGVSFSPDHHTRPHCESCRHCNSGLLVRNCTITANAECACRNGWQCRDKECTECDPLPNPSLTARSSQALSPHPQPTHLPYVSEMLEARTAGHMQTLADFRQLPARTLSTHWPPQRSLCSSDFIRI

[3] = biological target: T1, CD27 expressed on the cell surface …; test: cellular binding assay, HT1080_CD27 cells
Also: test concentration or dose not given here.

B1: P018.S.02.A.F05 (antibody, V domains shown)
VH: QEQLVESGGDLVKPEGSLTLTCTASGFSFSSSYYMSWVRQAPGKGLEWIACIDTVDNYTYYASWAKGRFTISKTSSTTVSLQMTSLTAADTATYFCARERIAYNTDYFNLWGPGTLVTVSS
VL: AQVLTQTPSPVSAAVGGTVTISCQSSQSLYNYNNLAWYQQKPGQPPKLLIYSASNLASGVPSRFGGSGSGTQFTLTISDLQSDDAATYYCQGYYSGAVYTFGGGTEVVVK
notes: V regions on human Ig constant parts; also called AB27_35
- IL-8, cross-linked by F(ab')2 fragment [abs. corr.] [1]: 1.17 abs. corr.
- IL-8 [abs. corr.] [1]: 0.395 abs. corr.
- ELISA [abs. corr.] [2]: 3.44 abs. corr.
- Cellular binding assay [RFU] [3]: 307 RFU

B5: P018.S.01.A.B04 (antibody, V domains shown)
VH: QEQLEESGGRLVTPGGTLTLTCTASGFSLSSYDMSWVRQAPGKGLEWIGYIWSDGNTDYASWAAGRFTASRASTTVDLKMTSLTTEDTATYFCARGYTGFFLWGPGTLVTVSS
VL: DVVMTQTPSSVSAAVGGTVTIKCQASQSIGSSYLSWYQQKPGQPPKLLIYKTSTLASGVPSRFKGSGSGTEFTLTISDLESDDAATYYCQCTYYGGSWRVAFGGGTEVVVK
notes: V regions on human Ig constant parts; also called AB27_5
- IL-8, cross-linked by F(ab')2 fragment [abs. corr.] [1]: 2.12 abs. corr.
- IL-8 [abs. corr.] [1]: 0.582 abs. corr.
- ELISA [abs. corr.] [2]: 3.36 abs. corr.
- Cellular binding assay [RFU] [3]: 382 RFU

B6: P018.S.01.A.B05 (antibody, V domains shown)
VH: B5 VH with S61T
VL: B5 VL with G96S
notes: V regions on human Ig constant parts; also called AB27_6
- IL-8, cross-linked by F(ab')2 fragment [abs. corr.] [1]: 1.88 abs. corr.
- IL-8 [abs. corr.] [1]: 0.453 abs. corr.
- ELISA [abs. corr.] [2]: 3.5 abs. corr.
- Cellular binding assay [RFU] [3]: 376 RFU

B7: P018.S.09.A.D02 (antibody, V domains shown)
VH: QSLEESGGRLVTPGTPLTLTCTASGFSLSKYDMGWFRQAPGKGLEWIGMIGASDRTYYASWVKGRFTISKTSTTVDLRITSPTTEDTATYFCAREYPDARGYYYNLWGPGTPVTVSS
VL: ALVMTQTPASVEAAVGGTVTINCQASQSISDLLAWYQQKPGQPPKLLIYDASDLASGVPSRFSGSGSGTEFTLTISGVQSDDAATYYCQQGYSITNVDNVFGGGTEVVVK
notes: V regions on human Ig constant parts; also called AB27_150
- IL-8, cross-linked by F(ab')2 fragment [abs. corr.] [1]: 1.75 abs. corr.
- IL-8 [abs. corr.] [1]: 1.01 abs. corr.
- ELISA [abs. corr.] [2]: 3.37 abs. corr.
- Cellular binding assay [RFU] [3]: 337 RFU

B8: P018.S.01.A.D02 (antibody, V domains shown)
VH: B7 VH with R55S
VL: B7 VL with L46P, S63K, E70Q
notes: V regions on human Ig constant parts; also called AB27_11
- IL-8, cross-linked by F(ab')2 fragment [abs. corr.] [1]: 1.67 abs. corr.
- IL-8 [abs. corr.] [1]: 0.675 abs. corr.
- ELISA [abs. corr.] [2]: 3.26 abs. corr.
- Cellular binding assay [RFU] [3]: 323 RFU

B9: P018.S.01.A.G04 (antibody, V domains shown)
VH: QEQLVESGGGLVQPEGSLTLTCTASGVSFSNNYYISWVRQAPGKGLEWIACVYTGDDDYTYYPSWAKGRFTISKTSSTTVTLQMTSLTAADTATYFCAREILYPADTDSFDLWGPGTLVTVSS
VL: AFELTQTPSSVEAAVGGTVTIKCQASESISSRLAWYQQKPGQPPKLLIYRASTLASGVPSRFKGSGSGTDFTLTISDLESADAATYYCQAYVGISSGGYIFGGGTEVVVK
notes: V regions on human Ig constant parts; also called AB27_23
- IL-8, cross-linked by F(ab')2 fragment [abs. corr.] [1]: 1.15 abs. corr.
- IL-8 [abs. corr.] [1]: 0.273 abs. corr.
- ELISA [abs. corr.] [2]: 3.77 abs. corr.
- Cellular binding assay [RFU] [3]: 388 RFU

The remaining lines, values ahead:

- IL-8, cross-linked by F(ab')2 fragment [abs. corr.] [1]: 1.76 abs. corr.
- IL-8 [abs. corr.] [1]: 0.201 abs. corr.
- ELISA [abs. corr.] [2]: 3.48 abs. corr.
- Cellular binding assay [RFU] [3]: 374 RFU
B2: P018.S.02.A.B05 (antibody, V domains shown)
VH: B1 VH with D10G, K13Q, T23K, S28D, V55A, N57G
VL: B1 VL with A53V
notes: V regions on human Ig constant parts; also called AB27_31

- IL-8, cross-linked by F(ab')2 fragment [abs. corr.] [1]: 1.53 abs. corr.
- IL-8 [abs. corr.] [1]: 0.235 abs. corr.
- ELISA [abs. corr.] [2]: 3.37 abs. corr.
- Cellular binding assay [RFU] [3]: 415 RFU
B3: P018.S.04.A.C02 (antibody, V domains shown)
VH: B1 VH
VL: B1 VL with A53V, S67G, D83A
notes: V regions on human Ig constant parts; also called AB27_69

- IL-8, cross-linked by F(ab')2 fragment [abs. corr.] [1]: 1.67 abs. corr.
- IL-8 [abs. corr.] [1]: 0.508 abs. corr.
- ELISA [abs. corr.] [2]: 3.38 abs. corr.
- Cellular binding assay [RFU] [3]: 330 RFU
B4: P018.S.04.A.B01 (antibody, V domains shown)
VH: B1 VH with E15G, S17T, V55A, N57A
VL: B1 VL
notes: V regions on human Ig constant parts; also called AB27_66
